From patent US20190142860A1, “NUCLEIC ACID BASED TIA-1 INHIBITORS” (Aquinnah Pharmaceuticals, Inc., priority 2015, published 2019)

Legend:
[1] = target: Nucleolysin TIA-1 (endogenous mouse TIA1) (mouse) (UniProt P52912); test: TIA1 IP-MS, WT2 cortex
[2] = target: Nucleolysin TIA-1 (endogenous mouse TIA1) (mouse) (UniProt P52912); test: TIA1 IP-MS, tau KO 2 cortex
[3] = target: Nucleolysin TIA-1 (endogenous mouse TIA1) (mouse) (UniProt P52912); test: TIA1 IP-MS, tau KO 3 cortex
[4] = target: Nucleolysin TIA-1 (endogenous mouse TIA1) (mouse) (UniProt P52912); test: TIA1 IP-MS, tau KO 1 cortex
[5] = target: Nucleolysin TIA-1 (endogenous mouse TIA1) (mouse) (UniProt P52912); test: TIA1 IP-MS, WT3 cortex
[6] = target: Nucleolysin TIA-1 (endogenous mouse TIA1) (mouse) (UniProt P52912); test: TIA1 IP-MS, WT1 cortex

Sequence of UniProt P52912 (P52912 whole entry): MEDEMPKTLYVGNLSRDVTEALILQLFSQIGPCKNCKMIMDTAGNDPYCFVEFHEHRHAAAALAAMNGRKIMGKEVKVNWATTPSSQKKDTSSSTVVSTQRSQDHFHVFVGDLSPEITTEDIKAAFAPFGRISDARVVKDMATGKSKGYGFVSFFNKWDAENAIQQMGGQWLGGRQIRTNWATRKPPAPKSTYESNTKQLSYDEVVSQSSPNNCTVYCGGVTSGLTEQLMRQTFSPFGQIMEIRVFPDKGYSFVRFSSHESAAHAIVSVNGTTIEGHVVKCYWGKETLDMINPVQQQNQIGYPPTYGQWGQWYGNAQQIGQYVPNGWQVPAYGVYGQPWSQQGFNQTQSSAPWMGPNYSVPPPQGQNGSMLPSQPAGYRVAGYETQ

Row | Substance | total ion current (normalized to TIA1 = 1000) [1] | total ion current (normalized to TIA1 = 1000) [2] | total ion current (normalized to TIA1 = 1000) [3] | total ion current (normalized to TIA1 = 1000) [4] | total ion current (normalized to TIA1 = 1000) [5] | total ion current (normalized to TIA1 = 1000) [6]
1 | Isoform Glt-1A of Excitatory amino acid transporter 2 (from UniProt P43006 1-569) | 187 | 96.4 | 0 | 0 | 298 | 0
2 | Amphiphysin (from UniProt Q7TQF7 1-686) | 113 | 0 | 0 | 0 | 0 | 0
3 | 26S proteasome non-ATPase regulatory subunit 8 (from UniProt Q9CX56 1-353) | 0 | 0 | 0 | 4.11 | 0 | 80.3
4 | Calcium-transporting ATPase (from UniProt Q6Q477 1-1205) | 274 | 144 | 0 | 0 | 0 | 0
5 | Poly(rC)-binding protein 1 (from UniProt P60335 1-356) | 19.2 | 58.5 | 0 | 0 | 30.2 | 0
6 | Guanine deaminase (from UniProt Q9R111 1-454) | 0 | 75.3 | 0 | 0 | 68.5 | 0
7 | Tubulin polymerization-promoting protein (from UniProt Q7TQD2 1-218) | 299 | 40.4 | 0 | 0 | 220 | 0
8 | Protein NipSnap homolog 1 (from UniProt O55125 36-284) | 219 | 27 | 0 | 0 | 0 | 0
9 | Isoform 2 of Hepatoma-derived growth factor-related protein 2 (from UniProt Q3UMU9 1-667) | 282 | 97.1 | 0 | 0 | 0 | 0
10 | Alpha-actinin-4 (from UniProt P57780 1-912) | 77 | 28.8 | 0 | 0 | 14.5 | 0
11 | Probable ATP-dependent RNA helicase DDX17 (from UniProt Q501J6 1-650) | 135 | 34.1 | 0 | 0 | 0 | 0
12 | Serine/arginine-rich splicing factor 2 (from UniProt Q62093 2-221) | 306 | 67.1 | 0 | 0 | 71.1 | 0
13 | Isoform 2 of Beta-adducin (from UniProt Q9QYB8 1-562) | 346 | 32.6 | 0 | 0 | 0 | 0

Other lines, results leading:

Row | total ion current (normalized to TIA1 = 1000) [1] | total ion current (normalized to TIA1 = 1000) [2] | total ion current (normalized to TIA1 = 1000) [3] | total ion current (normalized to TIA1 = 1000) [4] | total ion current (normalized to TIA1 = 1000) [5] | total ion current (normalized to TIA1 = 1000) [6] | Substance
14 | 116 | 36.1 | 0 | 0 | 0 | 0 | Microtubule-associated protein 6 (from UniProt Q7TSJ2 1-906)
15 | 182 | 60.8 | 0 | 15.7 | 38 | 6.6 | High mobility group protein B1 (from UniProt P63158 1-215)
16 | 42.4 | 71.9 | 1120 | 0 | 44.8 | 0 | Annexin A7 (from UniProt Q07076 1-463)
17 | 58.5 | 45.2 | 0 | 0 | 0 | 0 | Clathrin heavy chain 1 (from UniProt Q68FD5 2-1675)
18 | 0 | 130 | 0 | 0 | 84.3 | 0 | Isoform 2 of Focal adhesion kinase 1 (from UniProt P34152 2-1083)
19 | 0 | 0 | 1570 | 0 | 0 | 0 | Nicotinamide phosphoribosyltransferase (from UniProt Q99KQ4 1-491)
20 | 105 | 102 | 0 | 0 | 67.8 | 0 | Isoform 2 of AP-2 complex subunit beta (from UniProt Q9DBG3 2-951)
21 | 69.2 | 36 | 0 | 0 | 13.8 | 0 | Protein disulfide-isomerase A3 (from UniProt P27773 25-505)
22 | 56 | 55.4 | 0 | 0 | 78.1 | 0 | Histone H1.4 (from UniProt P43274 2-219)
23 | 70.2 | 31.2 | 0 | 0 | 18.4 | 0 | Protein kinase C and casein kinase substrate in neurons protein 1 (from UniProt Q61644 1-441)
24 | 181 | 231 | 0 | 0 | 21.6 | 0 | Calcium-binding mitochondrial carrier protein Aralar1 (from UniProt Q8BH59 2-677)
25 | 269 | 0 | 0 | 0 | 0 | 0 | Isoform 2 of Sodium-driven chloride bicarbonate exchanger (from UniProt Q5DTL9 1-1088)
26 | 189 | 81.6 | 0 | 0 | 31.7 | 0 | Malate dehydrogenase, cytoplasmic (from UniProt P14152 2-334)
27 | 0 | 0 | 0 | 30.3 | 0 | 39.3 | Protein kinase C gamma type (from UniProt P63318 1-697)
28 | 402 | 365 | 0 | 0 | 162 | 0 | Glutamate dehydrogenase 1, mitochondrial (from UniProt P26443 54-558)
